Reference: paper PMC9741652, “CRL2^ZER1/ZYG11B recognizes small N-terminal residues for degradation” (Nature Communications, 2022)
Positions count from the first letter of the chain named. Numbers in names are those of the source. Values belong to the binder of their own block, whether it stands above or below them.

Assays:
SFLHVGQD peptide = molecular target: T1, SFLHVGQD peptide; experiment: ITC; conditions: chain shown with the change;; parent: 1.3
T1 chain: SFLHVGQD

[1] = molecular target: ZYG11B (residues 490–728), Q9C0D3; experiment: ITC; conditions: chain shown with the change;; parent: 2.5 µM
ZYG11B (residues 490–728), Q9C0D3, sequence (Q9C0D3 other isoform, or with tags, fused parts or gaps): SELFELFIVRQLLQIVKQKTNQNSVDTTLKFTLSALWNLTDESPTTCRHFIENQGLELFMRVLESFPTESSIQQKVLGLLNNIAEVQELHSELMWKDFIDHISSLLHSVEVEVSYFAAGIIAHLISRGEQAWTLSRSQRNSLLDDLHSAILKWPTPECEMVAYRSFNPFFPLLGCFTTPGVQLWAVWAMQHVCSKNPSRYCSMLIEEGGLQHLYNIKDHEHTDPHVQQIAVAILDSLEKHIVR

Kd (SFLHVGQD peptide): > 100 µM
B1: ZER1 (residues 469–766), Q7Z7L7 D556A (protein)
chain: MEELEELEFQYRRVNELLLSILNPTRQDESIQRIAVHLCNALVCQVDNDHKEAVGKMGFVVTMLKLIQKKLLDKTCDQVMEFSWSALWNITAETPDNCEMFLNFNGMKLFLDCLKEFPEKQELHRNMLGLLGNVAEVKELRPQLMTSQFISVFSNLLESKADGIEVSYNACGVLSHIMFDGPEAWGVCEPQREEVEERMWAAIQSWDINSRRNINYRSFEPILRLLPQGISPVSQHWATWALYNLVSVYPDKYCPLLIKEGGMPLLRDIIKMATARQETKEMARKVIEHCSNFKEENMDTSR

Kd (SFLHVGQD peptide): > 100 µM
B2: ZER1 (residues 469–766), Q7Z7L7 E600A (protein)
chain: B1 chain with A92D, E136A

Kd [1]: > 100 µM
Binder: VFLHVGQD [GFLHVGQD peptide G1V]
